Measured values taken from patent US20250092426, “CAS ENDONUCLEASES AND RELATED METHODS” (Flagship Pioneering Innovations VII, LLC, published 2025).

Target: T1, CasEnd-2 (synthetic construct)
T1 chain: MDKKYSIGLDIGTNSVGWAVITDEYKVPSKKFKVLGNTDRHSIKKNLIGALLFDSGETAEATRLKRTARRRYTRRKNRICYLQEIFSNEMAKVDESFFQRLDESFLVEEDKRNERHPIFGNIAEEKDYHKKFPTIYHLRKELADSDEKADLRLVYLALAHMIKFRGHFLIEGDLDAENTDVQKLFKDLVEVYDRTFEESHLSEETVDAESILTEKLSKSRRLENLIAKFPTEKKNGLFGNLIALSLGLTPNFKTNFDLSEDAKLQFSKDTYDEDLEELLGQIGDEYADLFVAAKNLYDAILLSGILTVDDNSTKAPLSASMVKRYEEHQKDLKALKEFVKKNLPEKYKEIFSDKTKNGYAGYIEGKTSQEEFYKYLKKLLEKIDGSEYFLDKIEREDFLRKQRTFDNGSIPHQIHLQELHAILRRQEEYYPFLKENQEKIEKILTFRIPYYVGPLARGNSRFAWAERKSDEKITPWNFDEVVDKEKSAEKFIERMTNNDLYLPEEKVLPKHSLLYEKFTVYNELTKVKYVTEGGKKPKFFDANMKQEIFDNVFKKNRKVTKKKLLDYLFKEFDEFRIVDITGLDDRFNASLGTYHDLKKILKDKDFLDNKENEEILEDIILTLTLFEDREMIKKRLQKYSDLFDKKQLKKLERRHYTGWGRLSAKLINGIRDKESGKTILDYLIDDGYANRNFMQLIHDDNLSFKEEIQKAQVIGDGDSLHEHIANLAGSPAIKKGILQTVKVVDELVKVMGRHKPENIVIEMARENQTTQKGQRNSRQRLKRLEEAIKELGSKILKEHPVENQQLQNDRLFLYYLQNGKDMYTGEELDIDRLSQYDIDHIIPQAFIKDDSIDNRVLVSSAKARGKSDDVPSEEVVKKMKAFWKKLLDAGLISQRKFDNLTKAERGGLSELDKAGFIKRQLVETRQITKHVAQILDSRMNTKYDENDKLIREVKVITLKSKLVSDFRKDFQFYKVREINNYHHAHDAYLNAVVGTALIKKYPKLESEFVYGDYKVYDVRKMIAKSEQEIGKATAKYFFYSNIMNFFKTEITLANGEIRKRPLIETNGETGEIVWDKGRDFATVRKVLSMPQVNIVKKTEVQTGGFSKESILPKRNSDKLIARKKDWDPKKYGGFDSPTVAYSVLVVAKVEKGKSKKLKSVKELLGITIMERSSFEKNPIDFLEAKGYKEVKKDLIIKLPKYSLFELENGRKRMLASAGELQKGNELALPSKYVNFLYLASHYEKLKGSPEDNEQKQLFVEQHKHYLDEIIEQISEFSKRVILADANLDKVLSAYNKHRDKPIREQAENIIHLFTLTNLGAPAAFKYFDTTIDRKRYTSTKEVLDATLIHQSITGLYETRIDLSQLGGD
Experiment: cell_activity; +++; HEK293T; PAM not stated
Outline: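 Editing activity was scored as the fraction of GFP+ cells on day 4 by flow cytometry. BFP-expressing HEK293T cells (250,000) received by nucleofection 200 ng plasmid for the RT-Cas fusion protein and 200 ng template RNA plasmid designed to convert BFP to GFP.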

B1: BFP-to-GFP template RNA ; BFP reporter protospacer (ssRNA ; dsDNA)
RNA: GCCGAAGCACUGCACGCCGUGUUUUAGAGCUAGAAAUAGCAAGUUAAAAUAAGGCUAGUCCGUUAUCAACUUGAAAAAGUGGCACCGAGUCGGUGCACCCUGACGUACGGCGUGCAGUGCUU
DNA 1: GCCGAAGCACTGCACGCCGT
DNA 2: ACGGCGTGCAGTGCTTCGGC
activity: ≥ 100 % of reference
